Experimental findings from the DeepSol protein solubility set are described below.

A short description of the series: soluble on expression in E. coli; label from the status in PepcDB or PDB records.
Consider “MSNTESTPVFDVCLSEKSFPHAQDKAILVHVFLSQTKDIDNLTEFQTLAESAGVELLSTLTTSRNAPHIKYFVGQGKAEEIAQAVENLGATVVLINHQLSPAQTRNLQNLCGCRIVDRSGLILDIFAQRARSHEGKLQVELAQLRHLSTRLVRRLGNQDQQKGGSVGLRGPGETQLETDRRLIKVRIQQLQNQLDKVNKKRHQNRKTRQKADIPTVSLVGYTNAGKSTLFNAITQAGVYAADQLFATLDPTLRRMQIQDVGTTILADTVGFIRFLPHDLVSAFKSTLQETTEANLLLHVVDIADERKNDNITAVNQVLDEIGALTLPSLLIYNKVDKITDITPHIERNQEGKPIAVYLSAHTNQGIDLLYQAIRECLRNELVCQKILLPTTAGQIYAQIRNQNCIKQEHFNQFGDRLIDIEVNAVQWQKWLKQYPALIEYVAFAKWENELEHHHHHH”, for which the “soluble on expression in E. coli” value was “not soluble”. Consider “MGPEGALPKASEATVCANNSKVSSPGEKVVLWTREADRVILTMCQEQGAQPHTFSVISQQLGNKTPVEVSHRFRELMQLFHTACEASSEDEDDATSTSNADQLSDHGDLLSEEELDE”, for which the “soluble on expression in E. coli” value was “soluble”. As to “MSLKPGTLISMMTEEEANSITHLTLTGKLNAEDFRHLRDEFPSLKVLDISNAEIKMYSGKAGTYPNGKFYIYMANFVPAYAFSNVVNGVTKGKQTLEKVILSEKIKNIEDAAFKGCDNLKICQIRKKTAPNLLPEALADSVTAIFIPLGSSDAYRFKNRWEHFAFIEGEPLETTIQVGAMGKLEDEIMKAGLQPRDINFLTIEGKLDNADFKLIRDYMPNLVSLDISKTNATTIPDFTFAQKKYLLKIKLPHNLKTIGQRVFSNCGRLAGTLELPASVTAIEFGAFMGCDNLRYVLATGDKITTLGDELFGNGVPSKLIYKEGHHHHHH”, the “soluble on expression in E. coli” value is recorded as “not soluble”.

As to “MGSDKIHHHHHHMHDKFLNYFDETARQGSIRKAAAVLNMSSSSLNRKIISTENRLGIRLFDRHADGVTLTEAGVVVLEHCRNTLFDYQRIVNMVEDIRDMRTGHIDILTLDSIALSVLPEVLDDFQDAYPQVAYTIQTDEPHAVMQAVANGTADIGLSFSNDLHPDVRCQAEKSTPIGAIMAHDHPLAERDLIEVGDLAPYQLIRSYDSQTHRSFVNEAVSSLGVQLSTQMVTNSLPLAKTMILNGRGVGIYSKIGFIEEIEDGRLRYVAINSPLLRELRIGVLISARTGLLPVQHLLARALSKSLRSLRLDS”, the “soluble on expression in E. coli” value is given as “not soluble”. With “AEGGFLEDAKTDLVLRNYYFNRDFRDHDAGKSLVDEWAQGFILKFSSGYTPGTVGVGLDAIGLFGVKLNSGRGTSNSELLPLHDDGRAADNYGRVGVAAKLRVSASELKIGEMLPDIPLLRYDDGRLLPQTFRGFAVVSRELPGLALQAGRFDAVSLRNSADMQDLSAWSAPTQKSDGFNYAGAEYRFNRERTQLGLWHGQLEDVYRQSYANLLHKQRVGDWTLGANLGLFVDRDDGAARAGEIDSHTVYGLFSAGIGLHTFYLGLQKVGGDSGWQSVYGSSGRSMGNDMFNGNFTNADERSWQVRYDYDFVGLGWPGLIGMVRYGHGSNATTKAGSGGKEWERDVELGYTVQSGPLARLNVRLNHASNRRSFNSDFDQTRLVVSYPLSW”, the “soluble on expression in E. coli” value is “soluble”. As for “MAHHHHHHMDEIKWPLRLLQILRNHLEQVDHPHEPRTLPIAAKCGQGGVLAFLTDVDDDVRRRTGASECITACCRGLVLDMIEQCCTLLFLSSKERRVINMAAVQREKRVVARGVGKRRRGDQGETTEETAIGETDNSQRKCAAVLPLEYLLRLFVALPSLLAHYDKLGGSTMPAAFKQPLWNYVNAVLDIMKDMTFLDPSEYIPLR”, the “soluble on expression in E. coli” value is listed as “not soluble”. As to “MCILFIAIEQHPKYPLIICANRDEFHQRPTQAMHVWQESNILAGKDLQAGGTWLGLSSTGKFAALTNFRKLPLSEAPKKSRGDLVLQALADTKINMTAELAQQASQYHGFNLIYGSLKQLYCYDSVNNQSHQLSDGVHSICNGALDDIWPKMARGEKLLSETIRSQKNLSIEALFDLMTNDKQALPHLLPETGLDEEWEQLLSAIFIKSPTYGTRTTTIITQDVEGNVETYDRSYAPSGECITKQQFNLATVFDLEHHHHHH”, the “soluble on expression in E. coli” value is “not soluble”. With “MILQRLFRFSSVIRSAVSVHLRRNIGVTAVAFNKELDPIQKLFVDKIREYKSKRQTSGGPVDASSEYQQELERELFKLKQMFGNADMNTFPTFKFEDPKFEVIEKPQALEHHHHHH”, the “soluble on expression in E. coli” value is reported as “not soluble”. The value for “DKDNPKGLPMLSVDEPTLTMDFMVNTSPLAGTEGKFVTSRQIRDRLQKELLTNVALRVEDTADADVFRVSGRGELHLTILLENMRREGYELAVGKPRVVYRDIDGQKCEPYENLTVDVPDDNQGAVMEELGRRRGELTNMESDGNGRTRLEYHIPARGLIGFQGEFMTLTRGVGLMSHVFDDYAPVKPDMPGRHNGVLVSQEQGEAVAYALWNLEDRGRMFVSPNDKIYEGMIIGIHSRDNDLVVNPLKGKKLTNIRASGTDEAVRLTTPIKLTLEGAVEFIDDDELVEITPQSIRLRKRYLSELERRRHFKKLD” was “not soluble”; that for “MVIELKNEKVTVQFKEFGGALSSIKDQDGIEYLWQGNPAYWSSQAPVLFPICGSLRNDKGIYTSKKHSHRYGSIPRHGLVRKKNFRFEQLGKDSVVFTITPDKEMLMQYPYHFELKIIYTLKHTTIRTEYQVINKEKESIMPYFIGGHPGLNCPLFAGDRYEDYYLEFEKEETCTVPKSFPDTGLLDLQDRKIFLKGQKYLDLDYSLFTHDAITLDNLQSRSVSLRSKNHGGGLRLDFADFPYLILWSTANKSPFIALEPWSGLSTAVDESDYFEEKRNVSFVEPGQFDRNYFDITVLLEHHHHHH” was “soluble”; that for “EIKDTYNIGELSPGMTATFEGEVISALPIKEFKRADGSIGKLKSFIVRDETGSIRVTLWDNLTDIDVGRGDYVRVRGYIREGYYGGLECTANYVEILKKGEKIES” was “soluble”.

Turning to “MGSDKIHHHHHHMDEIARFLRSYPPFDRLPEQVVHQIAGELQIEFVRAGQTILTKGGEPSSFLYIVCKGSVDLLRSEDQVVDTLGPGEAFGHPSLIRGQPPLVTVRAHTDTLLYLLPGAIFHRLRAEQPQFAAFFAASVIERLGYALQSRQSESNPALFQTRLRDLVARPPVSISPEATVGDAARLMRDERISSLIVEHTPIGIITDRDLRNRVLAEGLPDTTPVRQVMSAPATTIAADALAFEGLLLMLERGIHHLPLVEGDRVVGVVTHTDILRRQSNSPLFLPRLLQRATSLADLRRYTDQVADAVFTLTAAGARVSDIGRVVAVAHDALLQRLIHDAEAQLGPPPVPYAWLVLGSEGRYEQTLRTDQDNALVYDDSASADDVRYFEQLATLVVDWLVECGFPRCPGNIMATNPEWRQSLATWQRYFHRWIEIPDEESLLRIAIFFDYRQVYGQLPAEPVLRTITQHAAEHRIFMARLARAALRQPAPLTFFRQVALERRGDPRDL”, the “soluble on expression in E. coli” value was “not soluble”. For the sequence “MSSQIPFTVDHVGSFLRPETIKKARKKVQAGALSQAELRLIEDEEIKALVAKQKAGGLRGITDGEFRRGFWHIDFLEGLNGVTGYIPETGYNQTFHGKAAPAYNIRVVDKISFPTQHPFLEDFSFLKEVVEVGDGTVAKATIPSPTMILRQEILSNDGTSRIQTIYPEIGAFYKDLAQTYKDAIAAFYERGCRYLQFDDTNWAFLADQTKQEELRAKGIQPEEIAQVCTTIINEALAGKPEDLTVTTHICRGNHASSWLFSGGYEPIAKELFATNYDGFFLEYDSDRAGDFSPLRHWQNNGSKVVLGLVTSKFPELEETEQVKARIEEAQQFVPLENLSISPQCGFASTEEGNRLTEKEQWRKVQLLQEIAREVWLEHHHHHH”, the “soluble on expression in E. coli” value is “soluble”. With “MGSDKIHHHHHHMFLSELYRYPVKSGQAQSLKASPVGLLGLQGDRRWMVVEEENGRFLTQRAWPQLGQIDASDDDSGQLLLQAPGQAPLRVPVPPADDALRGVTIWRDTLRVPDAGDAAAAWLSELLGKAVRLVHCPEQRARYLPNGYGLNSDRAAFPDGFPLLLIGQGSLDELNRRIGRPMSMRRFRPNLVVQGAEPFAEDGWKRIRIGSLVFRVLKPSVRCIFTTIDPVTGERSADREPMATLKTFREKEGDVLFGQNLAVDGSGWLEVGMEVEILE”, the “soluble on expression in E. coli” value was “not soluble”. “MGRVTLRITGTQLLCQDEHPSLLAALESHNVEVEYQCREGYCGSCRTRLVAGQVDWITEPLAFIQPGEILPCCCRAKGDIEIEM”: the “soluble on expression in E. coli” value is “not soluble”. As to “DHDFKYEVSANLSTVRNRVTSLGFGTDSYISGAYITNVGEEIGKFYGWVYDGIARTQADLDNHATQEGAQIGDCLYKDVSGPDGKPDGKVDANDQVVLGSGMPKINFGLNARFEYKRFDLSIATFGALNYHVSDDIHNSLNSCYGWGNKDVAMLDANRFSEDGSTYLSSVPRTYVTNSASLAWNDLFSDRKIQNAAYWKIANIELGYNFPNEWFGKYVSDVRFYVSAQNLHTFTGYKGYNVDYAGGTFTPGYNFCSYPTARTFMCGVHFTF”, the “soluble on expression in E. coli” value is reported as “not soluble”. The result for “MKTTPIPLRRDIILDGKWCAAMLKELESLYEGDIVINGQPEHPEDYEWFYTADGDEIGIAKHRLTEQERRLLALFFTPAERRREPESEEERAWKRWMATGDPAALARLAAPYCRFIHFTASRPIANKEEFADAVRGLFSSPVAIVWEQDRRGLIVEAKQKRTTEPPSLADMAEALAADFYTALHLLIGPIRSVDERLYESFLLEKECFSAARRFWPKRTVYEWEDVIPLPLFEEGAVSEKARRTLSFLDGFDEEEVRAMETFLQCNLNVSMAAKKLYMHRNSLQYRIDKWAEQTGVDIKRFKGAAAVYLAILHRRRS” reads “not soluble”. With “MMSSNQQPVVLGKLGSCHGIKGWLKITAYTDSVEGIFDYSPWLIKENGEWREVKVIQWRYQGKAVVAELEGVTTRERAQMLTNCEIGILPQQMNALPEDEFYWRDLIGCEVINTTGYNMGIVDQIVETGSNDVLLVKANAKDSFGKVERMVPFVPGQFILKVDVQGKQILVDWDPDFLEHHHHHH”, the “soluble on expression in E. coli” value is listed as “soluble”. As for “MAHHHHHHMGRKKRKLNIDLKPFCYYCDREFDDEKILIQHQKAKHFKCLHCNRKLDMANGLVVHMMQVHKTNLKSVPNALPKRNDPELVIRGMNGVPTDIIEENLIKLKQKLGDKNIKRQQRVNWAQVTMAPTMEQFLKQAQMGNFSFPGFNSPVLPTNNNILTNTLDINNKSTLPNIPLYIPNTTSNINNINNINNLLQQPIGNNIIYPPKNSTLLNMPIPPINKNNINNHVVTNPNTFTPSNIPPNIAHKYSANINLLPTNINQHNPMYMPPGLYPPPIPPLNHPSIPPTHIPSSTYPTKMTPIQQKRPSTKWDVPEPSEGDPSILKHNKEDSTENKNEEPHKVSQDDDLKQNEQKDNQEKNHTQNCE”, the “soluble on expression in E. coli” value was “not soluble”. In the case of “MSLQFVSKARKGLVPQRCHRFQSCAYRSNQWRYRGRCDSIQFAVDKRVFIAGFGLYGSSCGSAEYSAKIEMKRQGVVLGQNLSKYFSDGSSNTFPVWFEYPVQIEPDTFYTASVILDGNELSYFGQEGMTEVQCGKVTVQFQCSSDSTNGTGVQGGQIPELIFYAEGHHHHHH”, the “soluble on expression in E. coli” value is listed as “not soluble”.

Consider “MSLSRLILIESNKNTRGTPWISIPVRNGVFEYDFYTDHEKAYELICWDDLLNGCWYPVTFFAENGTVSFTISAIDARPPYRIETLNSLTTALRLFEAEGKDKFSFDELNARRDTLEKYGRFESEAMQALWKKFDQVKDNPEERNKLFRERDRLEESGEAFTKEAKALIKEREQLFRKKVIWETEQASQHPSLVGLFILKMKVENARKDEDVTPYLEAFQKVYASRYPEHPYTREMQMFIDNNQPKTGNRFIDFSAPDLNGNMVQLSEQIRGKVALIDLWASWCGPCRTTSKQLIPIYEKYKDRGFTVIGVAREQNSDIRMREAIRKDGYPWLNLIELNDVQQIWSKYRIPNAAGGTFLVNAQGIILAVNPTAEEVERILQKELEGHHHHHH”, for which the “soluble on expression in E. coli” value was “not soluble”. With “MKVEGRCHCGAIAYEAEVEPGTITVCHCADCQMQSGSVFRANISAPADTFVLLQGTPKEYLKIAASGARRMHAFCGNCGGPIYSCAAENPQSYSLRVGALEQRHALGRPLRQIWARRRFSWLSSLGDVEEFDGQP”, the “soluble on expression in E. coli” value was “not soluble”.
